Three proteins from patent US7749976 can be followed below.

The target of data set [1] is MyBP Tyr(P).
The target in data set [2] is MyBP Ser(P)/Tyr(P).
Data set [3] concerns the target Casein Ser(P).

Marks after values point to notes of the source that are not given here.

Sequence of MyBP Tyr(P) (P02686 whole entry): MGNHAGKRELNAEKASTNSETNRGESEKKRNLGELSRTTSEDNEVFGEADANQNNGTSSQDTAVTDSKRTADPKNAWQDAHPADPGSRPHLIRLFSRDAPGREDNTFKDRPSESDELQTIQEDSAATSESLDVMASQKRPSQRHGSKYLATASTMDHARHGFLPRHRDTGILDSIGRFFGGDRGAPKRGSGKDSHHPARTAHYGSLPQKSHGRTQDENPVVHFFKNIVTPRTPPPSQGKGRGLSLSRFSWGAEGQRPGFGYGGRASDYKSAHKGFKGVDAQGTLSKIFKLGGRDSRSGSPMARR
Sequence of MyBP Ser(P)/Tyr(P) (P02686 whole entry): as above

B1: VHR (protein)
chain: MSGSFELSVQDLNDLLSDGSGCYSLPSQPCNEVTPRIYVGNASVAQDIPKLQKLGITHVLNAAEGRSFMHVNTNANFYKDSGITYLGIKANDTQEFNLSAYFERAADFIDQALAQKNGRVLVHCREGYSRSPTLVIAYLMMRQKMDVKSALSIVRQNREIGPNDGFLAQLCQLNDRLAKEGKLKP
With B1, the results for the Phosphatase activity (mole of phosphate released/min/mol of enzyme) (mol/(min mol)) in data set [1] and in data set [3] were 0.5 and 1.8, respectively. Besides, the “Phosphatase activity (mole of phosphate released/min/mol of enzyme)” value in data set [2] and in data set [3] was ~0.0^b each time.

B2: TC-PTP (protein)
chain: MPTTIEREFEELDTQRRWQPLYLEIRNESHDYPHRVAKFPENRNRNRYRDVSPYDHSRVKLQNAENDYINASLVDIEEAQRSYILTQGPLPNTCCHFWLMVWQQKTKAVVMLNRIVEKESVKCAQYWPTDDQEMLFKETGFSVKLLSEDVKSYYTVHLLQLENINSGETRTISHFHYTTWPDFGVPESPASFLNFLFKVRESGSLNPDHGPAVIHCSAGIGRSGTFSLVDTCLVLMEKGDDINIKQVLLNMRKYRMGLIQTPDQLRFSYMAIIEGAKCIKGDSSIQKRWKELSKEDLSPAFDHSPNKIMTEKYN
Regarding B2, the figures for the Phosphatase activity (mole of phosphate released/min/mol of enzyme) (mol/(min mol)) in data set [1] and in data set [3] were 195 and 1440, respectively. The “Phosphatase activity (mole of phosphate released/min/mol of enzyme)” value in data set [2] and in data set [3] was ~0.0^b throughout.

B3: GST-PLIP (recombinant murine PLIP fusion protein with N-terminal GST and 6-His tags) (protein)
chain: MAASAWLEAGLARVLFYPTLLYTVFRGRVRGPAHRDWYHRIDHTVLLGALPLKNMTRRLVLDENVRGVITMNEEYETRFLCNTSKEWKKAGVEQLRLSTVDMTGVPTLANLHKGVQFALKYQALGQCVYVHCKAGRSRSATMVAAYLIQVHNWSPEEAIEAIAKIRSHISIRPSQLEVLKEFHKEITARAAKN
Turning to B3, the Phosphatase activity (mole of phosphate released/min/mol of enzyme) (mol/(min mol)) in data set [1] turned out to be 0.1; in data set [3], 0.2. Besides, the “Phosphatase activity (mole of phosphate released/min/mol of enzyme)” value in data set [2] and in data set [3] was ~0.0^b each time.
